Assay results taken from article PMC5559459, “Disruption of the structural and functional features of surfactant protein A by acrolein in cigarette smoke” (Scientific Reports, 2017).

Target: T1, recombinant human TLR4 (hTLR4) (human, UniProt O00206 24-631)
T1 construct: Toll-like receptor 4, human, recombinant; No catalogue number is printed; the bought protein is probably a soluble extracellular construct with a tag (surmise); source: bought: Sino Biological Inc
Experiment: ELISA; 500 ng hTLR4 coated on 96-well plates; 5 μg SP-A in 10 mM HEPES pH 7.4, 0.15 M NaCl, 5 mM CaCl2, 2% fatty acid-free BSA, 37 °C, 5 h; detected with anti-human SP-A polyclonal antibody and HRP anti-rabbit IgG; background (vehicle) subtracted
Conditions: both partners purified

T1 sequence (O00206 24-631): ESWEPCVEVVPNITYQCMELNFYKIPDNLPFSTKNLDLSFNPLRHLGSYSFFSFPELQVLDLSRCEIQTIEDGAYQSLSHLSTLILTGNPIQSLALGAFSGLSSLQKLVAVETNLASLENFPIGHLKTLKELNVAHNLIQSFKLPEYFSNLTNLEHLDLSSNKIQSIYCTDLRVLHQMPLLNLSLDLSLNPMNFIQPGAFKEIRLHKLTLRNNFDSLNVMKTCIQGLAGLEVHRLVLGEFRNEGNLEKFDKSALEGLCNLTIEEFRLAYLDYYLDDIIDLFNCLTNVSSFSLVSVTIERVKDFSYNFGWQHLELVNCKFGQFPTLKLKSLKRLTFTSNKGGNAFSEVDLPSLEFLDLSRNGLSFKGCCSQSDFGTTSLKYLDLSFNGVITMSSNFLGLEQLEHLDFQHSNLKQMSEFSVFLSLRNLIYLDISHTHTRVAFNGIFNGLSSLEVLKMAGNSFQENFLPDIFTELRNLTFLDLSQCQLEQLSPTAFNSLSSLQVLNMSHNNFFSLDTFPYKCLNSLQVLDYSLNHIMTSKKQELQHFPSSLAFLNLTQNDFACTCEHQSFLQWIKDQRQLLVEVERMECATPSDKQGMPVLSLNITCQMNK

B1: cigarette smoke extract (CSE)-modified recombinant human SP-A (natural protein)
chain: not shown
modifications: adducts from cigarette smoke extract (acrolein-lysine adducts, aldehyde adducts, modified free thiols); sites not mapped
notes: pulmonary surfactant protein A, human SP-A1 cDNA expressed and secreted by CHO-K1 cells; Chemically modified form of m1; heterogeneous adducts; also called CSE-modified SP-A; hSP-A pre-incubated with CSE; source: CHO-K1 cells, purified (mannose-Sepharose); 5 µM hSP-A incubated with 10% CSE in 5 mM Tris-HCl pH 7.4 at 37 °C for 4 h, then dialyzed
- percent decrease of binding against unmodified hSP-A: 71.9%

B2: acrolein (100 µM)-modified recombinant human SP-A (natural protein)
chain: not shown
modifications: acrolein adducts; at a 20:1 molar ratio of acrolein to SP-A six modified residues were identified: His39, His116, Cys155, Lys180, Lys221, Cys224
notes: pulmonary surfactant protein A, human SP-A1 cDNA expressed and secreted by CHO-K1 cells; Chemically modified form of m1; the sites were mapped by MS on a sample of 25 µM hSP-A with 500 µM acrolein (same 20:1 ratio); also called acrolein (100 μM)-modified SP-A; hSP-A pre-incubated with 100 µM acrolein; source: CHO-K1 cells, purified (mannose-Sepharose); 5 µM hSP-A incubated with 100 µM acrolein in …
- percent decrease of binding against unmodified hSP-A: 72.6%

B3: acrolein (10 µM)-modified recombinant human SP-A (natural protein)
chain: not shown
modifications: acrolein adducts (acrolein-lysine adducts, aldehyde adducts, modified free thiols); the sites were not mapped at this 2:1 ratio
notes: pulmonary surfactant protein A, human SP-A1 cDNA expressed and secreted by CHO-K1 cells; Chemically modified form of m1; heterogeneous adducts; also called acrolein (10 μM)-modified SP-A; hSP-A pre-incubated with 10 µM acrolein; source: CHO-K1 cells, purified (mannose-Sepharose); 5 µM hSP-A incubated with 10 µM acrolein in 5 mM Tris-HCl pH 7.4 at 37 °C for 4 h, then dialyzed
- percent decrease of binding against unmodified hSP-A: 77.1%
